Data reported in the supplement of paper PMC9732359.
± gives the uncertainty stated by the source.

Experiment: protein stability index of a GFP-peptide fusion (yeast GPS) (PSI 1-4); higher = more stable; sorted into four equal gates, so the index is relative within each strain
Summary of the method: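 Plasmids in a pooled yeast library fused tiled 17-residue yeast protein peptides downstream of GFP and also expressed Cherry. Mid-log cultures grown without leucine were sorted into four equal gates by GFP/Cherry fluorescence ratio. Each gate's plasmids were PCR-amplified and Illumina-sequenced, and reads were matched to strains by barcodes. The protein stability index is derived by multiplying each gate's read frequency by its gate number and summing the results.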

| Sequence | protein stability index (doa10∆) | protein stability index (pdr5∆) | protein stability index (san1∆) | protein stability index (ubr1∆) |
| --- | --- | --- | --- | --- |
| NVTIAQGGVLPNIHQNL [HTA1] | 1.65 ± 0.05 | 1.48 ± 0.043 | 1.36 ± 0.066 | 1.46 ± 0.034 |
| NLEIPAYEFDGDKVIVG [RIP1] | 2.71 ± 0.07 | 2.61 ± 0.093 | 2.65 ± 0.064 | 2.72 ± 0.077 |
| LSILKGDYSQATVLSRK [RPN5] | 3.08 ± 0.07 | 3.02 ± 0.06 | 3.03 ± 0.075 | 2.72 ± 0.056 |
| KKQNLSSHQRVFKLSTN [SWP82] | 1.94 ± 0.052 | 2.08 ± 0.052 | 2.05 ± 0.068 | 2.06 ± 0.043 |
| SAIRKCVRVQLIKNGKK [RPS23A] | 2.91 ± 0.081 | 3.02 ± 0.069 | 2.45 ± 0.12 | 3.19 ± 0.095 |
| SSSTQNVFVILMDKCLP [DIS3] | 1.97 ± 0.085 | 1.96 ± 0.053 | 2.13 ± 0.052 | 1.95 ± 0.043 |
| GNENFEDFDVEHFSDEE [RPO26] | 3.05 ± 0.088 | 3.1 ± 0.088 | 2.95 ± 0.085 | 3.17 ± 0.082 |
| NGIPLKSKERSSQFVRL [YMR129W/POM152] | 2.75 ± 0.15 | 2.6 ± 0.14 | 3.22 ± 0.096 | 2.85 ± 0.075 |
| MENDKGQLVELYVPRKC [RPS21A] | 3.17 ± 0.14 |  | 3.23 ± 0.12 | 3.25 ± 0.091 |
| GDHSSVPVALKGQGPFT [YMR129W/POM152] | 1.87 ± 0.25 |  |  | 1.83 ± 0.2 |
| RKHKRVSPNAAPRQEIS [YAR002W/NUP60] | 2.92 ± 0.08 | 2.89 ± 0.056 | 2.92 ± 0.046 | 2.71 ± 0.063 |
| VKLIVMLCTLTGYQNND [YJL039C/NUP192] | 1.89 ± 0.12 | 1.25 ± 0.078 | 1.29 ± 0.17 | 1.25 ± 0.098 |
| YATKLSKFTKIPPTFDK [MED4] | 3.08 ± 0.089 | 3.28 ± 0.084 | 3.29 ± 0.08 | 2.87 ± 0.14 |
| ENLADLDYQIGNSESKV [LIN1] | 3.23 ± 0.099 | 3.42 ± 0.11 | 3.06 ± 0.12 | 3.42 ± 0.1 |
| NQPHQSQTPSFNTNSSF [YOR098C/NUP1] | 2.64 ± 0.042 | 2.99 ± 0.034 | 2.93 ± 0.036 | 3.047 ± 0.03 |
| VTIIPLDKIYTRPISSQ [SMC2] | 1.66 ± 0.067 | 1.55 ± 0.084 | 1.64 ± 0.082 | 1.25 ± 0.045 |
| RQKARTDAHTPLARNYI [RPR2] | 2.63 ± 0.054 | 2.52 ± 0.058 | 2.78 ± 0.049 | 2.86 ± 0.042 |
| VRKAITVLFFIGVRCYE [FAS1] | 1.47 ± 0.087 | 1.77 ± 0.075 | 2.49 ± 0.098 | 1.45 ± 0.064 |
| AEFKKENLADLDYQIGN [LIN1] | 3.29 ± 0.086 | 3.32 ± 0.068 | 3.24 ± 0.057 | 3.26 ± 0.071 |
| NPEPNKKNIQKAKSNQT [IRR1] | 2.25 ± 0.062 | 2.43 ± 0.062 | 2.56 ± 0.13 | 2.56 ± 0.051 |
| KILVLTGAGVSTSLGIP [SIR2] | 2.35 ± 0.042 | 2.34 ± 0.057 | 2.76 ± 0.054 | 2.69 ± 0.051 |
| KKQVHVYRFVTENAIEE [ISW2] | 1.68 ± 0.07 | 1.77 ± 0.075 | 1.87 ± 0.12 | 1.91 ± 0.045 |
| PNMSICIFGDAFDVDRA [RPL1A] | 2.78 ± 0.071 | 2.52 ± 0.072 | 1.78 ± 0.084 | 2.4 ± 0.089 |
| ADINKNFLSVITNKHQE [RPN2] | 1.93 ± 0.074 | 2.11 ± 0.06 | 1.84 ± 0.087 | 1.71 ± 0.057 |
| APAFHTSGKVELPKKLL [SRB8] |  |  | 2.93 ± 0.2 | 2.84 ± 0.12 |
| DVVGTLSRNGKPVMEVT [FAS1] | 2.62 ± 0.13 | 2.81 ± 0.13 | 2.65 ± 0.12 | 2.63 ± 0.08 |
| RILQQLKLDKIIHVLTT [RGR1] | 1.64 ± 0.068 | 1.21 ± 0.053 | 1.72 ± 0.15 | 2.22 ± 0.073 |

| Sequence | protein stability index (doa10∆) | protein stability index (pdr5∆) | protein stability index (san1∆) | protein stability index (ubr1∆) |
| --- | --- | --- | --- | --- |
| TEISGLKNVNKRAFENF [SMC3] | 3.28 ± 0.079 | 3.09 ± 0.097 | 2.7 ± 0.096 | 2.96 ± 0.057 |
| ILDGQDVEENRSEFIES [YJR042W/NUP85] | 3.13 ± 0.09 | 3.2 ± 0.071 | 3.48 ± 0.072 | 3.27 ± 0.038 |
| IHLLHDDRGPVLESIVA [BRR2] | 2.48 ± 0.089 | 1.78 ± 0.06 | 3.24 ± 0.05 | 2.63 ± 0.11 |
| VTDDPIWMRGHGTYFLD [RRP4] | 3.22 ± 0.067 | 3.17 ± 0.078 | 3.47 ± 0.056 | 3.07 ± 0.065 |
| VQLKDANSQIQAYEEII [YIL149C/MLP2] | 2.69 ± 0.12 | 3.5 ± 0.17 | 3.37 ± 0.23 | 3.45 ± 0.12 |
| ILCIFEGEKCHPQDFGN [SEC65] | 2.13 ± 0.059 | 2.39 ± 0.066 | 2.14 ± 0.087 | 2.44 ± 0.053 |
| QLEKKIRFVCLSNCLAN [BRR2] | 1.82 ± 0.065 | 1.32 ± 0.048 | 1.31 ± 0.099 | 1.63 ± 0.045 |
| ADESKMAKLNECPLDPG [RET1] | 2.64 ± 0.083 | 2.74 ± 0.095 | 2.85 ± 0.082 | 2.08 ± 0.079 |
| IDDVQTIKVVKRSMDAE [RPP1] | 3.18 ± 0.054 | 2.89 ± 0.057 | 3.06 ± 0.039 | 3 ± 0.051 |
| DDESEQISLNRLIDSMK [RRI1] | 3.03 ± 0.16 | 3.11 ± 0.28 |  | 3.15 ± 0.14 |
| LESIQKTKEAVAALKAV [RPL4A] |  | 3.37 ± 0.2 | 2.82 ± 0.27 | 2.88 ± 0.17 |
| QCIVYPNCLFILKLLNG [SOH1] | 1.3 ± 0.062 | 1.51 ± 0.061 | 1.27 ± 0.14 | 1.29 ± 0.047 |
| EGLTYKYPARRIHTNDN [SSN3] | 2.78 ± 0.072 | 2.89 ± 0.073 | 2.86 ± 0.076 | 2.83 ± 0.055 |
| CIKKIMENNEPAMAMED [SRB8] | 3.12 ± 0.072 | 3.15 ± 0.079 | 3.13 ± 0.059 | 3.08 ± 0.069 |
| NWRKQKGIDSVVRRRFR [RPL32] | 2.56 ± 0.1 | 2.66 ± 0.17 |  | 2.28 ± 0.18 |
| QIFVRGSQIKFIVVPDL [SMD3] | 1.8 ± 0.071 | 2.35 ± 0.06 | 2.05 ± 0.064 | 2.02 ± 0.066 |
| NQVGTDELILPLPSHAL [YDL116W/NUP84] | 3.09 ± 0.057 | 3.09 ± 0.045 | 2.83 ± 0.052 | 3.06 ± 0.04 |
| NPSYPGMMSTTGTARLN [YJL039C/NUP192] | 2.97 ± 0.097 | 3.1 ± 0.053 | 3.13 ± 0.077 | 3.24 ± 0.076 |
| KGNVGFVFTNEPLTEIK [RPP0] | 3.56 ± 0.18 | 3.06 ± 0.1 | 2.06 ± 0.21 | 3.58 ± 0.2 |
| SASVRALIENWAADSVS [FAS1] | 2.46 ± 0.078 | 2.48 ± 0.094 | 2.59 ± 0.097 | 2.76 ± 0.091 |
| PKKALKVKAGVRSANED [RRP43] | 2.84 ± 0.1 | 2.35 ± 0.088 | 2.81 ± 0.069 | 2.41 ± 0.051 |
| DQMVVGWYHSHPGFGCW [RPN11] | 2.57 ± 0.079 | 2.92 ± 0.063 | 2.37 ± 0.069 | 2.21 ± 0.087 |
| FGYDIPLLDIVLKADRS [YML103C/NUP188] | 2.14 ± 0.061 | 2.81 ± 0.073 | 2.82 ± 0.068 | 2.66 ± 0.057 |
| DVETVKREIQEALSEKP [RPC53] | 3.27 ± 0.15 | 3.42 ± 0.12 | 3.17 ± 0.13 | 3.35 ± 0.1 |
| EIGLLGGRYVYPVHEAH [SNU114] | 1.85 ± 0.064 | 2.55 ± 0.091 | 2.79 ± 0.077 | 2.03 ± 0.084 |
| NRANVSKDELREKLAEV [RPS24A] | 3.53 ± 0.089 | 3.24 ± 0.11 | 3.37 ± 0.072 | 3.28 ± 0.088 |
